What all share (assay): ELISA
What all share (conditions): both partners purified

In test [1] the target is T1, recombinant full-length Pfs48/45 (Plasmodium falciparum 3D7, UniProt Q8I6T1).
In test [2] the target is T2, Pfs48/45 D1-2 (Plasmodium falciparum 3D7, UniProt Q8I6T1).
For test [3], the target named is T1, recombinant full-length Pfs48/45. This is another data set of the same source.
For test [4], the target named is T2, Pfs48/45 D1-2. This is another data set of the same source.

T1 sequence (Q8I6T1 28-428): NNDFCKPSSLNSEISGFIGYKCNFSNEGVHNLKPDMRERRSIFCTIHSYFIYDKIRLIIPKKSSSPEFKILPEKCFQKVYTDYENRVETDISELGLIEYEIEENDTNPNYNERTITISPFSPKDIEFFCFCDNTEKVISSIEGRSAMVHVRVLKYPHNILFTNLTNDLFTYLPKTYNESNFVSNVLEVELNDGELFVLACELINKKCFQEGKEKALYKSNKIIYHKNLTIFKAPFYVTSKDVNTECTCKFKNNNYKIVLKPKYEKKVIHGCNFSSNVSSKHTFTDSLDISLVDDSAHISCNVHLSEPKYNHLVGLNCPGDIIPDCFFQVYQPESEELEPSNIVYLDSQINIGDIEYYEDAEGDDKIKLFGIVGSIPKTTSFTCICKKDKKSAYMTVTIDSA
T2 sequence (Q8I6T1 28-289): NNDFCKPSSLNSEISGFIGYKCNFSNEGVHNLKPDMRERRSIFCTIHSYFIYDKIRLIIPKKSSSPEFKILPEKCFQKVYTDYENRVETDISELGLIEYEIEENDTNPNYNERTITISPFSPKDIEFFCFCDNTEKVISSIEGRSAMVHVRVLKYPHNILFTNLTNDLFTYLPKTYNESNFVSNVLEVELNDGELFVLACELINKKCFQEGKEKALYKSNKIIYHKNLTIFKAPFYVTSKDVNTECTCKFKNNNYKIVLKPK

B1: RUPA-71 (antibody, V domains shown)
VH: EEQLVESGGGLVKPGRSLRLSCSASGFTLGDYAVTWFRQASGKEPEWVGVIRTKDEGGTTEYAASVKGRFSILRDDSKSIAHLQMNSLKIEDTAVYYCTRNGLRWYDSSGPRGWAFDIWGPGTLVVVSS
VL: EIVMTQSPATVSVSPGERATLSCRTSQSVSNKLAWYQQKPGQAPRLLIYGASTRATGIPARFSGSGSGTQFTLTISSLQSEDFAVYYCQQYNNWPPWTFGRGTKVEIK
notes: human IgG1; source: recombinant human IgG1, 293T (Protein A purified) or GenScript
Consider B1, for which the binding result (in test [1]; with Pfs48/45 D1-2 [2]) was “binds” in each case.

B2: RUPA-122 (antibody, V domains shown)
VH: QITLKESGPTLVKPTQTLMLTCSVSGFSLSNNGVAVGWVRQPPGKALEWLALIYWNDDSFYRPSLKSRLTINKDTSKNQVVLTMTNVAPVDTATYFCARTMKKITMIRGVPYEGGVQGFDPWGPGILVTVSS
VL: DIQMTQSPSSLSASVGDRVTITCRASQGIRDDLAWYQQKPGKAPERLIYAASSLQSGVPSRFSGSGYGTEFTLTISSLQPEDFATYYCQQYSGYFTFGGGTKVEIN
notes: as for B1
For the molecule B2, the binding result (in test [3]; in the test with Pfs48/45 D1-2 [4]) was “binds” throughout.

B3: RUPA-130 (antibody, V domains shown)
VH: EVQLVESGGGLVKPGGSLRLSCEASGFTFRNAWMSWVRQAPGKGLEWVGRIKSYIDGGTADYAAPVKGRFSISRDDSKNTLFVQMNSLKTEDTAVYYCTTDSWAGEVGNYYFDNWGQGTLVTVSS
VL: QSALTQPASVSGSPGQSITISCTGTSSDVGSYNFVSWYQQHPGKAPKLMIYQVTWRPSGVSNRFSGSKSGNTASLTISGLQAEDEADYYCCSYSKSSTYVFGTGTKVSVL
notes: source: recombinant human IgG1, 293T (Protein A purified) or GenScript
For B3, the binding result (in test [3]; in the test with Pfs48/45 D1-2 [4]) was “binds” throughout.

B4: RUPA-141 (antibody, V domains shown)
VH: EVQLVESGGGLVQPGESLRLSCAASGFTFNTYWMTWVRQAPGKGLEWVANINQDGSQKNYVDSVKGRFTVSRDNAKKSLFLQMNSLRAEDTAVYYCARDNGARYSGVWYDGWYDAFDIWGRGTVLTVSS
VL: AIQMTQSPSSLSASVGDRVTITCRASQGIKNDLGWYQQKTGKAPKLLIYAASSLQSGVPSRFSGSGSGTDFTLTISSLQPEDFATYYCLQDYNYPRTFGQGTKVEIK
notes: as for B3
In the case of B4, the binding result in test [3] is on record as “binds”.

B5: RUPA-164 (antibody, V domains shown)
VH: QVQLQESGPGLVKPSETLSLTCSVSGGSMTSFYWSWIRQPPGKGLEWIGYVYYNGTTNYKPSLKSRVTISVDMSKNQVSLKLSSVTAADTAVYYCARDRVVGSYYYGMDVWGQGTTVTVSS
VL: EIVLTQPPVSLSLSPGEGATLSCRASQSVSSSYLAWYQQKPGQAPRLLMYSASRRATGIPDRFTGSGSGTDFTLTISRLEPEDFALYYCQHYGGSPRETFGQGTKVEIK
notes: as for B1
Turning to B5, the binding result (in test [3]; with Pfs48/45 D1-2 [4]) was “binds” each time.

B6: RUPA-114 (antibody, V domains shown)
VH: QVYLVQSGAEVKKPGASVKVSCKASGYDFTSYGIAWVRQAPGQGLEWMGWIGGYDDKTDYAQNLQGRFTVTTDTSTSTAYMELRSLKSDDTAVYYCARGGDRGDGLRFYYFALDVWGQGTTVTVSS
VL: DIVLAQSPGTLSLSPGEGATLSCRASQSIYNSYLAWYQHKPGQAPRLLIYGASSRATGIPDRFSGSGSGTDFTLTISRLEPEDFAVYYCQLYGRSSWTFGQGTKVEIK
notes: as for B1
Take B6: the binding result (in test [3]; in the test with Pfs48/45 D1-2 [4]) was “binds” in each case.

B7: RUPA-158 (antibody, V domains shown)
VH: QVQLVQPGAEVKKPGASVKVSCKASGYIFSTYGISWVRQAPGQGLEWMGWTSSYSDDTNYAQKFQDRVTMTTDTSTSTAYMELRSLRSGDTAVYYCARGGDRGDGPRYYYYGLDVWGQGTTVTVSS
VL: EIVLTQSPSTLSLSPGERATLSCRASQSLYNSYLAWYQQKPGQAPRLLIYGASSRATGIPGRFSGSGSGTDFSLTISRLEPEDFAVYYCSLYGRSSWTFGQGTKVEIK
notes: as for B1
Turning to B7, the binding result in test [3] is reported as “binds”.

B8: RUPA-51 (antibody, V domains shown)
VH: QVQLVQPGAEVKKPGASVKVSCKASGYIFSTYGISWVRQAPGQGLEWMGWTSSYSDDTNYAQKFQDRVTMTTDTSTSTAYMELRSLRSDDTAVYYCARGGDRGDGPRFYYYGLDVWGQGTTVTVSS
VL: EIVLTQSPGTLSLSPGERATLSCRASQSLYNSYLAWYQQKPGQAPRLLIYGASSRATGIPGRFSGSGSGTDFSLTISRLEPEDFAVYYCSLYGRSSWTFGQGTKVEIK
notes: as for B1
Turning to B8, the binding result in test [1] is listed as “binds”.

B9: RUPA-58 (antibody, V domains shown)
VH: QVQLVQSGPEAKKPGASVKVSCQASGYPFSGYYMHWLRQAPGQGLEWMGWMNPNSGGTKYAQRFQGRVTMTRDTSISTAHMELRGLRSDDTAVYYCARDYCTGSSCYRTDYDYWGQGTLVTVSS
VL: DIQMTQSPSSLSASVGDRVTITCRASQIISTYLNWYQHKPGKAPKLLIKSASTLQSGVPSRFSGSGSGTDFTLTITSLQPEDFATFYCQQSYRDPITFGQGTRLEIK
notes: as for B1
On to B9, for which the binding result (in test [1]; with Pfs48/45 D1-2 [2]) was “binds” each time.

B10: RUPA-67 (antibody, V domains shown)
VH: QVQLLESGPGLVKPSETLSLTCTVSGASISTSYWSWIRQPAGKGLEWIGRFHISESSNYNPSLKSRLTLSADTSKNQVSLRLSSVTAADTAVYYCARDVSPEECVSTKCYRRPGYMDVWGKGTSVTVSS
VL: DIQMTQSPSSLSASVGDRVTITCRASQSIRNYLNWYLQKPGKAPKLLIFGASSLQSGVPSRFSGSGSGTDFTLTISSLLPEDFATYYCQQSYTTPRTFGQGTKVEIK
notes: as for B1
Consider B10, for which the binding result in test [1] was “binds”.

B11: RUPA-165 (antibody, V domains shown)
VH: VQLQQWGAGLLKPSETLSLTCLVNGGSFSDYYWSWIRQPPGRGLEWIGDVNHSGTTNHRPSLQSRVTLSLDMSKNQFSLKLTSVTAADTAVYFCARRSSGYYRGSRYTGWLDPWGQGTLVTVSS
VL: IVMTQSPLSLSVSPGERATLSCRASQTITRNLAWYQQKPGQAPRLLIYGASTRAPDIPARFSASGSGTEFTLTISSLQSEDFALYYCQQYNNWPGLTFGGGTKVEIK
notes: as for B1
Turning to B11, the binding result (in test [3]; with Pfs48/45 D1-2 [4]) was “binds” in each case.

B12: RUPA-66 (antibody, V domains shown)
VH: QVQVQQWGAGLLKPSETLSLTCAAFGGSFSDYYWSWIRQPPGKGLEWIGEINHSGTTNYNPSLKSRVIISVDTSKNQFSLKLSSVTAADTALYYCARRSSGWYRRSRYTGWFDPWGQGTLVTVSS
VL: EILMTQSPATLSVSPGERATLSCRASQTITSNLAWYQQKPGQAPRLLMYGASTRATGIPARFSGSGSGTEFTLTISSLQSEDFGIYYCQQYNNWPGLSFGGGTKVEIK
notes: as for B1
Take B12: the binding result (in test [1]; with Pfs48/45 D1-2 [2]) was “binds” each time.

B13: RUPA-155 (antibody, V domains shown)
VH: QVQLQQWGAGLLKPSETLSLTCAVEGDSLGDYYWSWIRQPPGKGLEWIGDINHSGTTNYIPSLKSRVTISVDSSRNQFSLRLNFVTAADTATYFCARRASGWYRQSRYTGWFDPWGQGTLVTVSS
VL: EIVMTQSPATLSVSPGERATLSCRASHSINSNVAWYQQKPGQAPRLLIYGASTRATGIPARFSGSGSGTEFTLTISSLQTEDFAVYYCQQYNNWPGLSFGGGTKVEIK
notes: as for B1
For B13, the binding result (in test [3]; with Pfs48/45 D1-2 [4]) was “binds” throughout.

B14: RUPA-116 (antibody, V domains shown)
VH: QVQLQQWGAGLLKPSETLSLTCVVYGGSFSDYYWSWVRQPPGKGLEWIGEVNHSGTTNYNPSLKSRLTISVDTSKNQISLRLNSLTAADTAVYYCARRSSGYYRQSRYTGWFDPWGRGTLVTVSS
VL: EIVMTQSPATLSVSPGERATLSCRASQSITSNLAWYQQKPGQAPRLLIYGASTRATGIPARFSGSGSGTEFTLTISSLQSDDFALYYCQQYNNWPGLTFGGGTKVEIK
notes: as for B1
In the case of B14, the binding result (in test [3]; with Pfs48/45 D1-2 [4]) was “binds” each time.

B15: RUPA-119 (antibody, V domains shown)
VH: QVRLQQWGAGLLKPSETLSLTCGVSGGSFSDYYWTWIRQPPGKGLEWIGDISHSANTNYNESLQSRLTISVDTSKTQFSLRLASVTAADTALYFCARRSSGWYRQSRYTGWFDPWGQGTLVTVSS
VL: EIVMTQSPATLSVSPGERATLSCRASQSITSNLAWYQQKPGQAPRLLIYGASTRAAGIPARFSGSGSGTEFTLTISTLQSEDFAVYYCQQYNNWPGLTFGGGTTVEIK
notes: as for B1
Turning to B15, the binding result (in test [3]; in the test with Pfs48/45 D1-2 [4]) was “binds” in each case.

B16: RUPA-75 (antibody, V domains shown)
VH: QVQLQQWGAGLLKPSETLSLTCGVNGGSFTDYYWTWIRQPPGKGLEWIGDINHSGITNYNPSLKSRLTLSVDTSKSHFSLRLNSVTAADTALYFCARRSSGYYRGSRYTGWLDPWGQGTLVTVSS
VL: EIVMTQSPATLSVSPGERATLSCWASQSITSNLAWYQQKPGQAPRLLIYGASTRATGIPARFSGSGSGTGFTLTISTVQSEDFAVYYCQQYNNWPGLTFGGGTKVEIK
notes: as for B1
Regarding B16, the binding result (in test [1]; in the test with Pfs48/45 D1-2 [2]) was “binds” in each case.

B17: RUPA-94 (antibody, V domains shown)
VH: QVQLRESGPGLVKPSETLSLTCSVSGGSITSSPYYWAWIRQPPGKGLEWIGSIYYSGGAYYNPSLKSRVTMSVDTSKNQFSLKVNSVTAADTAVYYCARRPNPGFWGGGYYFDYWGQGTLVTVSS
VL: QSALTQPASVSGSPGQSITISCTGSSSDVGSYNLVSWYQHHPGKAPKLMISEVSKRPSGVSDRFSGSKSGNTASLTISGLQAEDEADYYCCSYADSSTRNYVFGTGTKVTVL
notes: as for B1
Turning to B17, the binding result (in test [3]; with Pfs48/45 D1-2 [4]) was “binds” each time.

B18: RUPA-156 (antibody, V domains shown)
VH: EVQLVESGGGLVQPGGSLRLSCVVSGFTFSRYSMYWVRQAPGKGPEWVSYIDSTGTTIYYADSVKGRFTISRDNAKSSLSLQMSSLRDDDRGVYYCARDGRKDSGSFLDHWGQGTLVTVSS
VL: DIQMTQSPSSLSASVGDRVTITCRASQSISEWLAWYQQKPGKAPRLLIYQASSLQSGVPSRFSGSGSGTEFTLTISSLQSDDFATYYCQQFDTYWTFGQGTKVEIK
notes: as for B1
As to B18, the binding result (in test [3]; with Pfs48/45 D1-2 [4]) was “binds” in each case.

B19: RUPA-48 (antibody, V domains shown)
VH: EVQLVESGGGLVQPGRSLRLSCAASGFSFDDHAMHWVRQAPGKGLEWVSGISWNSGNIGYADSVKGRFTISRDNAKNSLYLQMNSLRPEDTALYHCAKDGGYCSGIRCYHLRGMDVWGQGTTVTVSS
VL: EIVLTQSPATLSLSPGERATLSCRASQSVTNYLAWYQQKPGQAPRLLIYDASNRATGIPARFSGSGSGTDFTLTISSLEPEDFGVYYCQQRSSWPPYTFGQGTKLEIK
notes: as for B1
B19: in test [1], the binding result is given as “binds”.

For the origin of these results see publication PMC9942873 (Immunity, 2023).
